Measured values: patent publication US20160109449A1 (JULIUS MAXIMILIANS UNIVERSITAET WUERZBURG, published 2016)

Key:
[1] = target: IsaA oligopeptide SEQ ID NO: 12 (Staphylococcus aureus); test: peptide array on glass slide, fluorescent secondary antibody
[2] = target: IsaA oligopeptide SEQ ID NO: 11 (Staphylococcus aureus); test: as above
[3] = target: IsaA oligopeptide SEQ ID NO: 17 (Staphylococcus aureus); test: as above
[4] = target: IsaA oligopeptide SEQ ID NO: 37 (Staphylococcus aureus); test: as above
[5] = target: IsaA oligopeptide SEQ ID NO: 62 (Staphylococcus aureus); test: as above
[6] = target: T1, IsaA oligopeptide SEQ ID NO: 28 (Staphylococcus aureus); test: as above
T1 sequence (peptide): GTTWSWSYEAANGQT

[7] = target: IsaA oligopeptide SEQ ID NO: 39 (Staphylococcus aureus); test: as above
[8] = target: T2, IsaA oligopeptide SEQ ID NO: 36 (Staphylococcus aureus); test: as above
T2 sequence (peptide): GSDVQSVSYNAQSSN

[9] = target: T3, IsaA oligopeptide SEQ ID NO: 29 (Staphylococcus aureus); test: as above
T3 sequence (peptide): SWSYEAANGQTAGFS

[10] = target: IsaA oligopeptide SEQ ID NO: 18 (Staphylococcus aureus); test: as above
[11] = target: T4, IsaA oligopeptide SEQ ID NO: 30 (Staphylococcus aureus); test: as above
T4 sequence (peptide): EAANGQTAGFSNVAG

[12] = target: IsaA oligopeptide SEQ ID NO: 63 (Staphylococcus aureus); test: as above
[13] = target: IsaA oligopeptide SEQ ID NO: 47 (Staphylococcus aureus); test: as above
[14] = target: IsaA oligopeptide SEQ ID NO: 44 (Staphylococcus aureus); test: as above
[15] = target: IsaA oligopeptide SEQ ID NO: 53 (Staphylococcus aureus); test: as above
[16] = target: IsaA oligopeptide SEQ ID NO: 40 (Staphylococcus aureus); test: as above
[17] = target: IsaA oligopeptide SEQ ID NO: 24 (Staphylococcus aureus); test: as above
[18] = target: IsaA oligopeptide SEQ ID NO: 19 (Staphylococcus aureus); test: as above
[19] = target: IsaA oligopeptide SEQ ID NO: 54 (Staphylococcus aureus); test: as above
[20] = target: IsaA oligopeptide SEQ ID NO: 33 (Staphylococcus aureus); test: as above
[21] = target: IsaA oligopeptide SEQ ID NO: 48 (Staphylococcus aureus); test: as above
[22] = target: IsaA oligopeptide SEQ ID NO: 20 (Staphylococcus aureus); test: as above
[23] = target: IsaA oligopeptide SEQ ID NO: 55 (Staphylococcus aureus); test: as above
[24] = target: IsaA oligopeptide SEQ ID NO: 58 (Staphylococcus aureus); test: as above
[25] = target: T5, IsaA oligopeptide SEQ ID NO: 60 (Staphylococcus aureus); test: as above
T5 sequence (peptide): GWGPTNTVDQQINAA

[26] = target: IsaA oligopeptide SEQ ID NO: 57 (Staphylococcus aureus); test: as above
[27] = target: IsaA oligopeptide SEQ ID NO: 51 (Staphylococcus aureus); test: as above
[28] = target: IsaA oligopeptide SEQ ID NO: 41 (Staphylococcus aureus); test: as above
[29] = target: IsaA oligopeptide SEQ ID NO: 50 (Staphylococcus aureus); test: as above
[30] = target: T6, IsaA oligopeptide SEQ ID NO: 16 (Staphylococcus aureus); test: as above
T6 sequence (peptide): AAEVNVDQAHLVDLA

[31] = target: IsaA oligopeptide SEQ ID NO: 61 (Staphylococcus aureus); test: as above
[32] = target: T7, IsaA oligopeptide SEQ ID NO: 13 (Staphylococcus aureus); test: as above
T7 sequence (peptide): TGYAAGTGHQAHAAE

[33] = target: T8, IsaA oligopeptide SEQ ID NO: 31 (Staphylococcus aureus); test: as above
T8 sequence (peptide): GQTAGFSNVAGADYT

[34] = target: IsaA oligopeptide SEQ ID NO: 49 (Staphylococcus aureus); test: as above
[35] = target: IsaA oligopeptide SEQ ID NO: 34 (Staphylococcus aureus); test: as above
[36] = target: T9, IsaA oligopeptide SEQ ID NO: 14 (Staphylococcus aureus); test: as above
T9 sequence (peptide): AGTGHQAHAAEVNVD

[37] = target: T10, recombinant IsaA protein of Staphylococcus aureus (29 kDa immunodominant antigen IsaA) (Staphylococcus aureus, UniProt Q2FV52 30-233, limits assumed); test: SPR (BIACORE 2000), antibody captured on anti-mouse Fc surface, IsaA as analyte, 1:1 Langmuir fit
T10 construct: Coated as rIsaA in the ELISA; In the first SPR experiment it was N-biotinylated with sulfo-NHS-LC-biotin (mostly at a single site) and immobilised on streptavidin; In the second SPR experiment it was the analyte in solution; also called rIsaA; 29 kDa IsaA antigen
T10 sequence (looked up): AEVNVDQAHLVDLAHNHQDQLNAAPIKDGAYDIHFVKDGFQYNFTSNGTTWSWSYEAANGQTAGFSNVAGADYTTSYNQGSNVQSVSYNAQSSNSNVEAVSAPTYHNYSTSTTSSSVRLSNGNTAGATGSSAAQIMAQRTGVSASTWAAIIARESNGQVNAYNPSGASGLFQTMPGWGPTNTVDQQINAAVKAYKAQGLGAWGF
Description: A blank anti mouse Fc surface was used as control surface for monitoring unspecific binding and performing reference subtraction. Interaction analyses were performed using HBS-EP buffer (10 mM HEPES pH 7.4, 150 mM NaCl, 3 mM EDTA, 0.005% Tween 20). Sensorgrams were recorded at a flow rate of 30 μl/min at 25° C. Association and dissociation times were set to 3 and 15 min, respectively.
The anti-Fc capturing surfaces were regenerated after each cycle using short pulses of 10 mM glycine pH 1.7.
Affinities and rate constants for association (kₒₙ) and for dissociation (koff) were calculated using the BIAevaluation software 4.0.1 fitting the obtained sensorgrams to a 1:1 Langmuir binding model.

Molecule: control antibodies (peptide array) (antibody)
- Binding (fluorescence intensity) [1]: -22
- Binding (fluorescence intensity) [2]: -11
- Binding (fluorescence intensity) [3]: 48
- Binding (fluorescence intensity) [4]: -27.3
- Binding (fluorescence intensity) [5]: 6.3
- Binding (fluorescence intensity) [6]: 77.3
- Binding (fluorescence intensity) [7]: 109
- Binding (fluorescence intensity) [8]: -14.3
- Binding (fluorescence intensity) [9]: 85.7
- Binding (fluorescence intensity) [10]: -119
- Binding (fluorescence intensity) [11]: -7
- Binding (fluorescence intensity) [12]: 57.7
- Binding (fluorescence intensity) [13]: 14.7
- Binding (fluorescence intensity) [14]: 114
- Binding (fluorescence intensity) [15]: 70.3
- Binding (fluorescence intensity) [16]: -27
- Binding (fluorescence intensity) [17]: 79.3
- Binding (fluorescence intensity) [18]: 83.7
- Binding (fluorescence intensity) [19]: -51.7
- Binding (fluorescence intensity) [20]: -0.7
- Binding (fluorescence intensity) [21]: 398
- Binding (fluorescence intensity) [22]: 106
- Binding (fluorescence intensity) [23]: 36
- Binding (fluorescence intensity) [24]: 46.3
- Binding (fluorescence intensity) [25]: 18.7
- Binding (fluorescence intensity) [26]: 313
- Binding (fluorescence intensity) [27]: 58
- Binding (fluorescence intensity) [28]: 29.3
- Binding (fluorescence intensity) [29]: -49.7
- Binding (fluorescence intensity) [30]: 117
- Binding (fluorescence intensity) [31]: 30.3
- Binding (fluorescence intensity) [32]: 367
- Binding (fluorescence intensity) [33]: -20
- Binding (fluorescence intensity) [34]: 40
- Binding (fluorescence intensity) [35]: 98.7
- Binding (fluorescence intensity) [36]: -35

B1: monoclonal antibody MAB-UK-66 secreted by hybridoma cell line DSM ACC2987 (antibody, V domains shown)
VH: DVKLVESGGGLVKLGGSLKLSCSASGFTFSNYYMSWVRQTPEKRLELVADINGNGGSTYYPDTVKGRFTISRDNAKNTLYLQMSSLKSEDTALYYCVRRGGYYALDYWGQGTTVTVSS
VL: DVVMTQTPLSLPVSLGDQASISCRSSQSLVHINGNTYLHWYLQKPGQSPKLLIYRVSNRFSGVPDRFSGSGSGTDFTLKISRVEAEDLGVYFCSQSTHVPWTFGGGTKLELKR
notes: Monoclonal mouse antibody from a hybridoma; Detected with anti-mouse IgG; also called antibodies secreted by cell line DSM ACC2987; anti-IsaA MAB
- Kd [37]: 1.7 nM
- koff [37]: 0.00029 s⁻¹
- kon [37]: 180000 M⁻¹ s⁻¹
- Binding (fluorescence intensity) [6]: 3170
- Binding (fluorescence intensity) [8]: 2740
- Binding (fluorescence intensity) [9]: 2490
- Binding (fluorescence intensity) [11]: 1670
- Binding (fluorescence intensity) [16]: 6010
- Binding (fluorescence intensity) [25]: 3070
- Binding (fluorescence intensity) [30]: 1950
- Binding (fluorescence intensity) [32]: 5750
- Binding (fluorescence intensity) [33]: 2940
- Binding (fluorescence intensity) [36]: 3190
